{"source": "patent US8734776B2", "about": "(ZymoGenetics, Inc., priority 2003, dated 2014)", "molecules": {"B1": {"name": "zcyto24: mouse IL-28, SEQ ID NO:8 (protein, listed as Mus musculus)", "chain": "MKPETAGGHMLLLLLPLLLAAVLTRTQADPVPRATRLPVEAKDCHIAQFKSLSPKELQAFKKAKDAIEKRLLEKDLRCSSHLFPRAWDLKQLQVQERPKALQAEVALTLKVWENMTDSALATILGQPLHTLSHIHSQLQTCTQLQATAEPRSPSRRLSRWLHRLQEAQSKETPGCLEASVTSNLFRLLTRDLKCVANGDQCV", "modifications": "SIGNAL (1)...(28)"}}, "key": {"[1]": {"test_system": "encephelomyocarditis virus", "test": "Antiviral assay: cytopathic effect in L929 cells", "format": "cell-based, mouse"}, "Mouse B cells": {"test_system": "Mouse B cells", "test": "Mouse B cell 3H-thymidine incorporation", "format": "cell-based", "description": "Mouse B cells were isolated from 2 Balb/C spleens (7 months old) by depleting CD43+ cells using MACS magnetic beads. Purified B cells were cultured in vitro with LPS, anti-IgM or anti-CD40 monoclonal antibodies. Mouse IL-28 or mouse IFNα was added to the cultures and ^3H-thymidine was added at 48 hrs. and ^3H-thymidine incorporation was measured after 72 hrs. culture."}, "AML-12 cells": {"test_system": "AML-12 cells", "test": "ISG induction in mouse liver cell line AML-12 (real-time PCR)", "format": "cell-based", "details": "20 ng/ml, 48 hour time point"}, "adenoviral vector, AdGFP": {"test_system": "adenoviral vector, AdGFP", "test": "Adenoviral (AdGFP) liver pathology in mice", "format": "in vivo, mouse", "details": "C57Bl/6 mice", "description": "When injected intravenously, these viruses primarily target the liver for gene expression. The adenoviruses are replication deficient, but cause liver damage due to inflammatory cell infiltrate that can be monitored by measurement of serum levels of liver enzymes like AST and ALT, or by direct examination of liver pathology.\nC57B116 mice were given once daily intraperitoneal injections of 50 μg mouse IL-28 (zcyto24 as shown in SEQ ID NO:8) or metIL-29C172S—PEG for 3 days. Control animals were injected with PBS. One hour following the 3rd dose, mice were given a single bolus intravenous tail vein injection of the adenoviral vector, AdGFP (1×10^9 plaque-forming units (pfu)). Following this, every other day mice were given an additional dose of PBS, mouse IL-28 or metIL-29C172S—PEG for 4 more doses (total of 7 doses). One hour following the final dose of PBS, mouse IL-28 or metIL-29C172S—PEG mice were terminally bleed and sacrificed. The serum and liver tissue were analyzed. Serum was analyzed for AST and ALT liver enzymes. Liver was isolated and analyzed for GFP expression and histology. For histology, liver specimens were fixed in formalin and then embedded in paraffin followed by H&E staining. Sections of liver that had been blinded to treat were examined with a light microscope. Changes were noted and scored on a scale designed to measure liver pathology and inflammation."}, "[2]": {"test_system": "encephelomyocarditis virus", "test": "Antiviral assay: cytopathic effect in HeLa cells", "format": "cell-based, human"}, "[3]": {"test_system": "ISRE signaling in HepG2 cells", "details": "100 ng/ml; 4-hour"}}}
{"molecule": "B1", "values": [{"measurement": "Percentage Cytopathic Effect", "setting": "[1]; relative CM conc. .008X", "result": 87, "unit": "%"}, {"measurement": "Percentage Cytopathic Effect", "setting": "[1]; relative CM conc. .0156X", "result": 87, "unit": "%"}, {"measurement": "Percentage Cytopathic Effect", "setting": "[1]; relative CM conc. .0325X", "result": 87, "unit": "%"}, {"measurement": "Percentage Cytopathic Effect", "setting": "[1]; relative CM conc. .0625X", "result": 87, "unit": "%"}, {"measurement": "Percentage Cytopathic Effect", "setting": "[1]; relative CM conc. .125X", "result": 87, "unit": "%"}, {"measurement": "Percentage Cytopathic Effect", "setting": "[1]; relative CM conc. .25X", "result": 87, "unit": "%"}, {"measurement": "Percentage Cytopathic Effect", "setting": "[1]; relative CM conc. .5X", "result": 87, "unit": "%"}, {"measurement": "3H-thymidine incorporation by mouse B cells", "setting": "Mouse B cells; stimulated with LPS or anti-IgM, IFNα 10 ng/ml, mouse IL-28 any concentration including 1000 ng/ml", "result": "did not inhibit"}, {"measurement": "3H thymidine incorporation by mouse B cells", "setting": "Mouse B cells; stimulated with anti-CD40 MAb", "result": "increased"}, {"measurement": "Mx1 expression relative to HPRT", "setting": "AML-12 cells", "result": 0.08}, {"measurement": "OAS expression relative to HPRT", "setting": "AML-12 cells", "result": 0.04}, {"measurement": "PkR expression relative to HPRT", "setting": "AML-12 cells", "result": 0.02}, {"measurement": "liver histology: liver and inflammation scores versus PBS-treated group", "setting": "adenoviral vector, AdGFP", "result": "lower liver and inflammation scores"}, {"measurement": "average serum AST", "setting": "adenoviral vector, AdGFP; 50 μg i.p., 7 doses, n=8", "result": 193, "unit": "U/L"}, {"measurement": "relative liver fluorescence", "setting": "adenoviral vector, AdGFP; 50 μg i.p., 7 doses, n=8", "result": 34.5, "unit": "arbitrary units"}, {"measurement": "serum ALT", "setting": "adenoviral vector, AdGFP; 50 μg i.p., 7 doses, n=8", "result": 216, "unit": "U/L"}, {"measurement": "Percentage Cytopathic Effect", "setting": "[2]; relative CM concentration .008X", "result": 0, "unit": "%"}, {"measurement": "Percentage Cytopathic Effect", "setting": "[2]; relative CM concentration .0156X", "result": 0, "unit": "%"}, {"measurement": "Percentage Cytopathic Effect", "setting": "[2]; relative CM concentration .0325X", "result": 0, "unit": "%"}, {"measurement": "Percentage Cytopathic Effect", "setting": "[2]; relative CM concentration .0625X", "result": 0, "unit": "%"}, {"measurement": "Percentage Cytopathic Effect", "setting": "[2]; relative CM concentration .125X", "result": 0, "unit": "%"}, {"measurement": "Percentage Cytopathic Effect", "setting": "[2]; relative CM concentration .25X", "result": 0, "unit": "%"}, {"measurement": "Percentage Cytopathic Effect", "setting": "[2]; relative CM concentration .5X", "result": 0, "unit": "%"}, {"measurement": "Fold Induction of Cytokine-dependent ISRE Signaling in HepG2 Cells", "setting": "[3]", "result": 4.7, "unit": "fold"}]}
